± gives the uncertainty stated by the source.
B1: Apoptosis-associated speck-like protein containing a CARD, residues 114 to 194; numbered along this chain, Q9ULZ3 (parent)
chain: FIDQHRAALIARVTNVEWLLDALYGKVLTDEQYQAVRAEPTNPSKMRKLFSFTPAWNWTCKDLLLQALRESQSYLVEDLER

Variants of: B1
Assay: abundance fitness (aPCA) (normalised: wild type 0, dead -1); higher = more abundant; growth selection in yeast, the domain comes from the species named
Settings: Homo sapiens

Abundance fitness: each site, then its substitutions
K45: H -1.06 ± 0.48, G -0.768 ± 0.072, M -0.34 ± 0.13, C -0.887 ± 0.16, T -0.764 ± 0.13, R -0.317 ± 0.053, A -0.615 ± 0.083, S -0.273 ± 0.07, P -0.803 ± 0.15, W -0.852 ± 0.24, V -0.609 ± 0.073, D -1 ± 0.27, Q -0.695 ± 0.19, L -0.918 ± 0.11, E -0.846 ± 0.19
M46: Q -0.717 ± 0.22, A -0.679 ± 0.056, T -0.77 ± 0.14, G -0.949 ± 0.089, L -0.298 ± 0.06, I -0.778 ± 0.32, C -1.02 ± 0.27, Y -0.707 ± 0.13, W -0.696 ± 0.12, P -0.542 ± 0.11, F -0.807 ± 0.15, R -0.653 ± 0.068, E -0.831 ± 0.16, V -0.353 ± 0.054, D -1.03 ± 0.32, S -0.933 ± 0.13
T53: Y 0.11 ± 0.11, F -0.342 ± 0.15, D -0.855 ± 0.21, I -0.055 ± 0.12, M 0.015 ± 0.079, R -0.466 ± 0.062, K -0.957 ± 0.27, G -0.663 ± 0.058, H -0.394 ± 0.16, C -0.347 ± 0.083, V 0.072 ± 0.04, E -0.126 ± 0.068, L 0.071 ± 0.056, P -1.03 ± 0.22
L49: F -0.811 ± 0.37, E -0.979 ± 0.15, G -0.79 ± 0.073, Y -0.846 ± 0.22, N -0.209 ± 0.14, M -0.888 ± 0.16, V -0.837 ± 0.089, H -0.664 ± 0.38, A -0.93 ± 0.11, S -0.798 ± 0.1, I -0.444 ± 0.17, P -0.73 ± 0.12, D -0.914 ± 0.23
F50: I -0.418 ± 0.13, P -0.607 ± 0.098, L 0.182 ± 0.046, S -0.822 ± 0.1, Q -0.871 ± 0.18, K -1.02 ± 0.32, D -1.06 ± 0.48, C -0.937 ± 0.17, R -0.81 ± 0.086, H -0.948 ± 0.31, V -0.536 ± 0.073, M 0.113 ± 0.071, Y 0.015 ± 0.26, E -0.799 ± 0.19, N -0.775 ± 0.33, W -0.693 ± 0.097
K48: H -0.655 ± 0.34, D -0.745 ± 0.26, N -0.802 ± 0.22, E -0.963 ± 0.21, M -0.221 ± 0.079, S -0.891 ± 0.12, G -0.877 ± 0.096, W -0.35 ± 0.088, I -0.779 ± 0.32, V -0.469 ± 0.063, Y -1.05 ± 0.3, R -0.185 ± 0.051, F -0.585 ± 0.12, A -0.745 ± 0.081, P -0.71 ± 0.11, Q -0.674 ± 0.16, C -0.667 ± 0.14, T -0.635 ± 0.12, L -0.347 ± 0.063
S51: R -0.839 ± 0.083, F -0.633 ± 0.14, K -0.96 ± 0.16, W -0.849 ± 0.15, A -0.422 ± 0.063, C -0.429 ± 0.12, M -0.321 ± 0.11, L -0.938 ± 0.13, D -0.169 ± 0.095, Y -0.843 ± 0.2, N -0.806 ± 0.22, E -0.012 ± 0.068, I -0.904 ± 0.32, G -0.587 ± 0.057, Q -0.205 ± 0.08, T -0.141 ± 0.056, P -0.796 ± 0.06
R47: V -0.155 ± 0.052, D -0.517 ± 0.16, E 0.037 ± 0.081, K -0.008 ± 0.087, I -0.254 ± 0.11, A 0.013 ± 0.055, F -0.786 ± 0.18, H -0.452 ± 0.12, M -0.166 ± 0.083, T -0.04 ± 0.076, S -0.197 ± 0.052, L -0.319 ± 0.052, C -0.139 ± 0.079, P -0.814 ± 0.12, Y -0.872 ± 0.31, G -0.62 ± 0.061, N -0.214 ± 0.17, W -0.497 ± 0.066, Q -0.051 ± 0.072
S44: W -0.531 ± 0.073, R -0.064 ± 0.054, Q 0.061 ± 0.061, N -0.511 ± 0.36, P -0.868 ± 0.14, I -0.398 ± 0.33, V -0.947 ± 0.12, K -0.265 ± 0.1, Y -1.01 ± 0.28, T -0.097 ± 0.066, L 0.031 ± 0.05, M 0.024 ± 0.089
F52: S -0.948 ± 0.12, M -0.454 ± 0.24, R -0.824 ± 0.096, T -1.03 ± 0.21, A -0.732 ± 0.092, V -0.649 ± 0.056, Q -0.427 ± 0.16, G -0.943 ± 0.077, D -0.996 ± 0.21, I -0.53 ± 0.19, K -1 ± 0.35, Y -0.105 ± 0.085, N -0.836 ± 0.45, P -0.979 ± 0.19, C -0.966 ± 0.18, W -0.696 ± 0.087
P54: F 0.057 ± 0.14, C -0.254 ± 0.085, K 0.047 ± 0.088, H -0.196 ± 0.16, E 0.078 ± 0.073, D 0.132 ± 0.094, I -0.189 ± 0.13, A 0.045 ± 0.052, L -0.328 ± 0.047, G -0.017 ± 0.044

Source: the Human Domainome abundance scans (Beltran et al. 2025)
